The results in this text go back to the supplement of paper PMC10567573.

B1: NEK8 (parent)
chain: VTIKHVACGDFFTACLTDRGIIMT
B2: ZNF511 (parent)
chain: AAPFRFVARPVRFPREHQFFEDGD
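Note: lentivirally expressed fusions sorted by FACS into six bins by GFP to DsRed ratio, PSI derived from sequencing read proportions per bin multiplied by bin number.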

One data set covers variants of B1. Put plainly: protein stability index of a GFP-peptide fusion (GPS, HEK-293T) (PSI 1-6); higher = more stable. The settings on record: c terminus: a fixed tail appended.
Consider VTIKHVACGDFFTACLTDRGMIMT [I21M], for which the protein stability index amounted to 2.95. With VTIKHVACGDFFTACLTDRGCIMT [I21C], the protein stability index was 2.7. For the variant VTIKHVACGDFFTACLTDRGPIMT [I21P], the protein stability index is 2.25.

Consider VTIKHVACGDFFTACLTDRGDIMT [I21D], for which the protein stability index came to 2.13. VTIKHVACGDFFTACLTDRGKIMT [I21K]: the protein stability index amounted to 2.78. Still for that read-out and setting: the same measure for VTIKHVACGDFFTACLTDRGTIMT [I21T]: 2.48; for VTIKHVACGDFFTACLTDRGGIMT [I21G]: 3.21. Same read-out and setting: for VTIKHVACGDFFTACLTDRGLIMT [I21L] the value was 2.25; for VTIKHVACGDFFTACLTDRGWIMT [I21W], 2.31. On the same count and under the same terms, for VTIKHVACGDFFTACLTDRGICMT [I22C] the value was 3.72; for VTIKHVACGDFFTACLTDRGIKMT [I22K], 3.62.

With VTIKHVACGDFFTACLTDRGILMT [I22L], the protein stability index was found to be 4.46. In the case of VTIKHVACGDFFTACLTDRGIWMT [I22W], the protein stability index was found to be 4.62. As to VTIKHVACGDFFTACLTDRGIDMT [I22D], the protein stability index worked out at 3.93. Consider VTIKHVACGDFFTACLTDRGIGMT [I22G], for which the protein stability index is 2.98. On the same count and under the same terms, the same measure for VTIKHVACGDFFTACLTDRGIVMT [I22V]: 2.46; for VTIKHVACGDFFTACLTDRGIEMT [I22E]: 3.75; for VTIKHVACGDFFTACLTDRGIPMT [I22P]: 2.67.

Turning to VTIKHVACGDFFTACLTDRGIFMT [I22F], the protein stability index is 4.9. As to VTIKHVACGDFFTACLTDRGIQMT [I22Q], the protein stability index amounted to 3.88. The same measure, in the same setting: the same measure for VTIKHVACGDFFTACLTDRGIYMT [I22Y]: 2.39; for VTIKHVACGDFFTACLTDRGINMT [I22N]: 3.67; for VTIKHVACGDFFTACLTDRGIAMT [I22A]: 2.38. Turning to VTIKHVACGDFFTACLMDRGIIMT [T17M], the protein stability index was 3.48. The same measure, in the same setting: the same measure for VTIKHVACGDFFTACLKDRGIIMT [T17K]: 4.32; for VTIKHVACGDFFTACLQDRGIIMT [T17Q]: 3.69; for VTIKHVACGDFFTACLFDRGIIMT [T17F]: 3.49.

Consider VTIKHVACGDFFTACLSDRGIIMT [T17S], for which the protein stability index stood at 3.16.

On to VTIKHVACGDFFTACLHDRGIIMT [T17H], for which the protein stability index came to 3.72. For the variant VTIKHVACGDFFTACLCDRGIIMT [T17C], the protein stability index was 2.27. VTIKHVACGDFFTACLNDRGIIMT [T17N]: the protein stability index is 4.51. For VTIKHVACGDFFTACLPDRGIIMT [T17P], the protein stability index stood at 2.64. Turning to VTIKHVACGDFFTACLGDRGIIMT [T17G], the protein stability index was found to be 1.94. VTIKHVACGDFFTACLVDRGIIMT [T17V]: the protein stability index is 3.2.

As for VTIKHVACGDFFTACLLDRGIIMT [T17L], the protein stability index was found to be 3.17. With VTIKHVACGDFFTACLRDRGIIMT [T17R], the protein stability index came out at 3.53.

Regarding VTIKHVACGDFFTACLDDRGIIMT [T17D], the protein stability index is 2.27. In the case of VTIKHVACGDFFTACLIDRGIIMT [T17I], the protein stability index turned out to be 4.6.

The variants in another data set derive from B2. Described as above. The note with it: c terminus: a fixed tail appended.
For the variant AAPDRFVARPVRFPREHQFFEDGD [F4D], the protein stability index was 4.77.

Take AAPARFVARPVRFPREHQFFEDGD [F4A]: the protein stability index was 4.66. For AAPFRFVARPVRFPRIHQFFEDGD [E16I], the protein stability index is 2.03.

Consider AAPFRFVARPVRFPRDHQFFEDGD [E16D], for which the protein stability index was determined as 1.98. In the case of AAPFRFVARPVRFPRHHQFFEDGD [E16H], the protein stability index came to 2.25. AAPFRFVARPVRFPRVHQFFEDGD [E16V]: the protein stability index was 2.34. On to AAPFRFVARPVRFPRAHQFFEDGD [E16A], for which the protein stability index was 3.2. Turning to AAPFRFVARPVRFPRKHQFFEDGD [E16K], the protein stability index amounted to 2.15. AAPFRFVARPVRFPREHQNFEDGD [F19N]: the protein stability index stood at 2.52.

On to AAPFRFVATPVRFPREHQFFEDGD [R9T], for which the protein stability index turned out to be 1.83. Take AAPFRFVARPVLFPREHQFFEDGD [R12L]: the protein stability index turned out to be 2.13.

Regarding AAPFRFVARPVRFPREHQFFEDSD [G23S], the protein stability index worked out at 2.49. As for AAPFRFVARPVRFPREHQFFEDDD [G23D], the protein stability index was found to be 2.77.

Consider AAPFRFVARPVRFPREHQFFEDID [G23I], for which the protein stability index was found to be 1.51.

Turning to AAKFRFVARPVRFPREHQFFEDGD [P3K], the protein stability index worked out at 1.81. Consider AALFRFVARPVRFPREHQFFEDGD [P3L], for which the protein stability index was 1.93.

For AAQFRFVARPVRFPREHQFFEDGD [P3Q], the protein stability index came out at 2.26. Consider AAWFRFVARPVRFPREHQFFEDGD [P3W], for which the protein stability index was 3.21. Consider AAPFRFVARPVRFPREEQFFEDGD [H17E], for which the protein stability index amounted to 2.71. In the case of AAPFRFVARPVRFPREYQFFEDGD [H17Y], the protein stability index is 2.11. Consider AAPFRFVARPVRFPREHQFFEDGN [D24N], for which the protein stability index worked out at 2.88. As to AAPFRFVARPVRFPREHQFFEDGP [D24P], the protein stability index came to 2.1. As for AAPFRFVARPVRFPREHLFFEDGD [Q18L], the protein stability index turned out to be 2.18. As for AAPFRFVARPVRFPREHNFFEDGD [Q18N], the protein stability index came out at 2.33.

As for AAPFRFVARPVRFPREHRFFEDGD [Q18R], the protein stability index was determined as 2.27. For the variant AAPFRFVARPVRFPREHSFFEDGD [Q18S], the protein stability index was 2.46. Still for that read-out and setting: for AAPFRFVARPVRFPREHPFFEDGD [Q18P] the value was 2.05; for AAPFRFVARPVRFVREHQFFEDGD [P14V], 2.22.

AAPFRFVARPVRFNREHQFFEDGD [P14N]: the protein stability index was found to be 2.1.

Regarding AAPFRFVARIVRFPREHQFFEDGD [P10I], the protein stability index is 4.18.

For AAPFRFVARQVRFPREHQFFEDGD [P10Q], the protein stability index is 2.08. On the same count and under the same terms, for AAPFRFVARPVRFPREHQFTEDGD [F20T] the value was 2.5; for AAPFRFVARPVRGPREHQFFEDGD [F13G], 1.74.

As for AAPFRFVARPVRDPREHQFFEDGD [F13D], the protein stability index is 2.1.

As for AAPFRFVARPVRWPREHQFFEDGD [F13W], the protein stability index came out at 2.33. With AAPFRFVARPVRCPREHQFFEDGD [F13C], the protein stability index was found to be 1.8. With AAPFRFVARPVRVPREHQFFEDGD [F13V], the protein stability index was determined as 3.13. As for AAPFRFVARPVRMPREHQFFEDGD [F13M], the protein stability index was 2.72.

AAPFRFVARPVRQPREHQFFEDGD [F13Q]: the protein stability index is 2.1. On to AAPFRFVARPVRPPREHQFFEDGD [F13P], for which the protein stability index is 2.74. The same measure, in the same setting: for ADPFRFVARPVRFPREHQFFEDGD [A2D] the value was 3.25. Take ANPFRFVARPVRFPREHQFFEDGD [A2N]: the protein stability index amounted to 3.12. With AWPFRFVARPVRFPREHQFFEDGD [A2W], the protein stability index was 1.47. Take AAPFNFVARPVRFPREHQFFEDGD [R5N]: the protein stability index was 4.22.

Regarding AAPFSFVARPVRFPREHQFFEDGD [R5S], the protein stability index turned out to be 4.16. On the same count and under the same terms, the same measure for AAPFCFVARPVRFPREHQFFEDGD [R5C]: 3.05; for AAPFRFVERPVRFPREHQFFEDGD [A8E]: 1.98. For the variant AAPFRFVYRPVRFPREHQFFEDGD [A8Y], the protein stability index is 2.19. For the variant AAPFRFPARPVRFPREHQFFEDGD [V7P], the protein stability index is 4.46. AAPFRFIARPVRFPREHQFFEDGD [V7I]: the protein stability index worked out at 2.53. Consider AAPFRFWARPVRFPREHQFFEDGD [V7W], for which the protein stability index came out at 3.67. As to AAPFRFMARPVRFPREHQFFEDGD [V7M], the protein stability index was found to be 3.7. Regarding AAPFRFVARPVRFPREHQFFYDGD [E21Y], the protein stability index worked out at 1.92. Turning to AAPFRFVARPVRFPVEHQFFEDGD [R15V], the protein stability index worked out at 1.86. Take AAPFRMVARPVRFPREHQFFEDGD [F6M]: the protein stability index was determined as 4.13. Same read-out and setting: the same measure for AAPFRPVARPVRFPREHQFFEDGD [F6P]: 4.83.
